Experimental data: patent US20030166021A1

Biological target: c-Myc (human) (UniProt P01106)
Assay: cell-based or functional assay

c-Myc (human), sequence (P01106 16-454 limits assumed): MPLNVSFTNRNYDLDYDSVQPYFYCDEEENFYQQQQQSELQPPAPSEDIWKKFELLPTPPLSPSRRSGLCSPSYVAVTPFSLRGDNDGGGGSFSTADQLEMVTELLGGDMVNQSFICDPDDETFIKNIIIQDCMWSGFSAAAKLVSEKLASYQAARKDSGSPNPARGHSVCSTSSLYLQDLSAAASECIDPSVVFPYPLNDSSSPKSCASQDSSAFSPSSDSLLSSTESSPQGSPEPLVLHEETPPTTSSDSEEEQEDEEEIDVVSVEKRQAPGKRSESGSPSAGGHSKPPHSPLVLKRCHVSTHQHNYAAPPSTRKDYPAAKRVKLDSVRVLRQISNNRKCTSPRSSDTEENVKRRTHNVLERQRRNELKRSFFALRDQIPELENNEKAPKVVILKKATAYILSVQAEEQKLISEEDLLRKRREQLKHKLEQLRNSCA

focus formation in the Ras cooperation assay (myc + ras, rat embryo fibroblasts) [fold] | focus formation in the Ras cooperation assay (MYC + RAS, rat embryo fibroblasts) [fold] | fold decrease in focus formation by MYC (MYC + activated RAS, rat embryo fibroblasts) [fold] | Substance
2.4 | – | – | ATG99 polypeptide (murine clone #99 ORF with initiator methionine, vector neoCMV-ATG99) (from UniProt O08539 310-565)
– | 7 | 6 | human Bin1 (Box-dependent Myc-Interacting protein-1), full-length 451 amino acid product of cDNA p99f (from UniProt O00499 9-593)
